Source: patent US20070192880
pKd: −log10 of the molar value.

Columns and labels:
[1] = biological target: T1, CDC ERE binding module (ERα C domain - D hinge - C domain fusion) (UniProt P03372); assay: EMSA; settings: apparent Kd from EMSA competition
T1 sequence: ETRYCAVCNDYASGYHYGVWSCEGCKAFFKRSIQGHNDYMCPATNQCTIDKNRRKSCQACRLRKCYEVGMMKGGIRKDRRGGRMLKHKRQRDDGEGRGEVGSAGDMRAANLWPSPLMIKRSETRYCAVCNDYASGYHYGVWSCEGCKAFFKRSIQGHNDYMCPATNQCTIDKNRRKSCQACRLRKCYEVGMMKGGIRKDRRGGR

[2] = biological target: T2, ERα (Homo sapiens) (UniProt P03372); assay: EMSA; settings: EMSA competition
T2 sequence: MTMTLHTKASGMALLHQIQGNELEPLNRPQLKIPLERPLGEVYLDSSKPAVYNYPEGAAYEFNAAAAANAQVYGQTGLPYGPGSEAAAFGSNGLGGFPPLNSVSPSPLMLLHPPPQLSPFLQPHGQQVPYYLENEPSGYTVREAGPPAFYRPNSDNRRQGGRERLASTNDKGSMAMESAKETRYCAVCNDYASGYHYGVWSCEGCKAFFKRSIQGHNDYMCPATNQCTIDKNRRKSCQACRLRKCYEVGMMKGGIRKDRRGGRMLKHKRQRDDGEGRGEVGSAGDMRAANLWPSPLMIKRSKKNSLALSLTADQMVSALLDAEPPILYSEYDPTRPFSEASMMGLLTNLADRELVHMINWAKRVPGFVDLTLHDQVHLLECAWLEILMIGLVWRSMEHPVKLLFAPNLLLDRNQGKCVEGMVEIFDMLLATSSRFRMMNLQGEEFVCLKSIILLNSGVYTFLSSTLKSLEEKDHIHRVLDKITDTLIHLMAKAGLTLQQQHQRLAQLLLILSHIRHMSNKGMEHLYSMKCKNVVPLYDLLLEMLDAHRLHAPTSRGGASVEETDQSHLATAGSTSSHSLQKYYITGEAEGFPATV

[3] = biological target: ERα (expressed in cells) (UniProt P03372); assay: cell_activity; settings: COS-1, E2; about 2-fold without ligand
[4] = biological target: T3, SID-CDC (UniProt P03372); assay: cell_activity
T3 sequence: T1 sequence

[5] = tested on: SID-CDC-SID; assay: cell_activity; settings: COS-1; given as decreased about 60% of that observed with parent vector
Sequence of SID-CDC-SID (chain, as listed by the source): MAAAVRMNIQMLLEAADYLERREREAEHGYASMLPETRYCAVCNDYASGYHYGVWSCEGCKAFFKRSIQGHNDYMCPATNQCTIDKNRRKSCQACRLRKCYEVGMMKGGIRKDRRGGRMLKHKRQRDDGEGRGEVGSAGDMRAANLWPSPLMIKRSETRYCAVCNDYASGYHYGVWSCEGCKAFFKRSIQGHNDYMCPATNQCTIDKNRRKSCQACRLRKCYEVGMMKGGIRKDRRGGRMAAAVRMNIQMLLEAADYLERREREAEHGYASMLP

[6] = biological target: T4, CDC-SID (UniProt P03372); assay: cell_activity
T4 sequence: T1 sequence

[7] = biological target: T5, KRAB-CDC-SID (UniProt P03372); assay: cell_activity; settings: COS-1
T5 sequence: T1 sequence

[8] = biological target: T6, CDC-KRAB (UniProt P03372); assay: cell_activity; settings: COS-1 and CHO; no effect without ERE
T6 sequence: T1 sequence

[9] = biological target: T7, KRAB-CDC (UniProt P03372); assay: cell_activity; settings: COS-1 and CHO; no effect without ERE
T7 sequence: T1 sequence

[10] = biological target: T8, CDC (expressed in cells) (UniProt P03372); assay: cell_activity; settings: COS-1; little effect in CHO
T8 sequence: T1 sequence

[11] = biological target: T9, SID-CDC-KRAB (UniProt P03372); assay: cell_activity; settings: COS-1
T9 sequence: T1 sequence

[12] = COS-1, given as decreased about 60% of that observed with parent vector
[13] = COS-1 and CHO, no effect without ERE

GGTCANNNTGACC (double strand) [consensus ERE]
pKd [1]: 8.83 | pKd [2]: 9.59

complement C3 promoter
activity [3]: 11 fold

cathepsin D promoter
activity [4, 12]: 60 % repression | activity [5]: 60 % repression | activity [6, 12]: 60 % repression

GGTCANNNTGACC (double strand) [SV40 enhancer/promoter with one consensus ERE]
activity [7]: 95 % repression | activity [8]: 80 % repression | activity [9]: 50 % repression | activity [4, 13]: 50 % repression | activity [6, 13]: 80 % repression | activity [10]: 50 % repression | activity [11]: 95 % repression
